B1: 6×His-SPL9 (natural protein, Arabidopsis, UniProt Q700W2 1-375, looked up)
chain: MEMGSNSGPGHGPGQAESGGSSTESSSFSGGLMFGQKIYFEDGGGGSGSSSSGGRSNRRVRGGGSGQSGQIPRCQVEGCGMDLTNAKGYYSRHRVCGVHSKTPKVTVAGIEQRFCQQCSRFHQLPEFDLEKRSCRRRLAGHNERRRKPQPASLSVLASRYGRIAPSLYENGDAGMNGSFLGNQEIGWPSSRTLDTRVMRRPVSSPSWQINPMNVFSQGSVGGGGTSFSSPEIMDTKLESYKGIGDSNCALSLLSNPHQPHDNNNNNNNNNNNNNNTWRASSGFGPMTVTMAQPPPAPSQHQYLNPPWVFKDNDNDMSPVLNLGRYTEPDNCQISSGTAMGEFELSDHHHQSRRQYMEDENTRAYDSSSHHTNWSL
notes: SPL9 of Arabidopsis; the SPL9 ORF was cloned into pET-30a (+); Printed both as 6×His-SPL9 and SPL9-His; pET-30a(+) may add further vector residues (surmised); also called SPL9-His; SPL9-HIS; source: E. coli Rosetta (DE3), purified (Ni-NTA)
B2: GST-BIN2 (enzyme, Arabidopsis, UniProt Q39011 1-380, looked up)
chain: MADDKEMPAAVVDGHDQVTGHIISTTIGGKNGEPKQTISYMAERVVGTGSFGIVFQAKCLETGETVAIKKVLQDRRYKNRELQLMRVMDHPNVVCLKHCFFSTTSKDELFLNLVMEYVPESLYRVLKHYSSANQRMPLVYVKLYMYQIFRGLAYIHNVAGVCHRDLKPQNLLVDPLTHQVKICDFGSAKQLVKGEANISYICSRFYRAPELIFGATEYTTSIDIWSAGCVLAELLLGQPLFPGENAVDQLVEIIKVLGTPTREEIRCMNPHYTDFRFPQIKAHPWHKIFHKRMPPEAIDFASRLLQYSPSLRCTALEACAHPFFDELREPNARLPNGRPFPPLFNFKQEVAGSSPELVNKLIPDHIKRQLGLSFLNQSGT
notes: BIN2, GSK3-like kinase of Arabidopsis; the BIN2 ORF was cloned into pPGH (derived from pGEX4T-2); Printed both as GST-BIN2 and BIN2-GST; a vector derived from pGEX4T-2 would put GST at the N-terminus (surmised); also called BIN2-GST; pPGH-BIN2; source: E. coli Rosetta (DE3), purified (GST resin)

What was measured:
[1] = target: B2; assay: pull-down; purified His-tagged protein incubated with resin bound with GST or GST-BIN2 at 4 °C for 4 h; washed five times with PBS-EW; blots with anti-His and anti-GST; details: both partners purified
[2] = target: T1, 6×His-TOE1 (Arabidopsis, UniProt Q9SK03 1-449); assay: as above; details: both partners purified
T1 construct: TOE1 (AP2-like protein) of Arabidopsis; the TOE1 ORF was cloned into pET-30a (+); Printed both as 6×His-TOE1 and TOE1-His; pET-30a(+) may add further vector residues (surmised); also called TOE1-His; TOE1-HIS; source: E. coli Rosetta (DE3), purified (Ni-NTA)
T1 sequence (Q9SK03 whole entry): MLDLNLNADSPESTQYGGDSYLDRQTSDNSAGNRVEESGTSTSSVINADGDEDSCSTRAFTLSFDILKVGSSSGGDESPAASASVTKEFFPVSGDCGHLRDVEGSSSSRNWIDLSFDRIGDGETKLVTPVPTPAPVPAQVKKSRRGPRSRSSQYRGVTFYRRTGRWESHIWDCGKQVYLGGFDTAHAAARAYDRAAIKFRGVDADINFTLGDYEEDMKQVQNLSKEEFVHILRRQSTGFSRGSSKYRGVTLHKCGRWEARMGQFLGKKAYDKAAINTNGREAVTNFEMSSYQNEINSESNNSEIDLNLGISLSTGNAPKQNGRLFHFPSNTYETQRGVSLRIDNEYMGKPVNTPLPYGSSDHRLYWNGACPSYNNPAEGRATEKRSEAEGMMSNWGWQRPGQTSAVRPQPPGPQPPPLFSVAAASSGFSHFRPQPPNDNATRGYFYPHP

| binding result [1] | binding result [2] | Binder |
| --- | --- | --- |
| binds | – | B1 |
| – | binds | B2 |
